Each block holds one binder with its values, some of them ahead of it.
What was measured:
[1] = molecular target: T1, rHuman ErbB2/Fc Chimera, CF (R&D Systems Cat#1129-ER) (human, UniProt P04626 23-652); assay: ECL multispot (MSD), antigen spotted, Fab in solution; blank spot 352
T1 construct: Bought reagent

[2] = molecular target: T2, rHuman EGF R/Fc Chimera, CF (R&D Systems Cat#344-ER) (human, UniProt P00533 25-645); assay: as above
T2 construct: Bought reagent

[3] = molecular target: T3, rHuman HGF R/c-MET/Fc Chimera, CF (R&D Systems Cat#358-MT/CF) (human, UniProt P08581 25-932); assay: as above
T3 construct: Bought reagent; also called HGF R/Fc

[4] = molecular target: T4, rHuman Notch-1/Fc Chimera, CF (R&D Systems Cat#3647-TK) (human, UniProt P46531 19-526); assay: as above
T4 construct: Bought reagent

[5] = molecular target: T5, rHuman CD44/Fc Chimera, CF (R&D Systems Cat#3660-CD) (human, UniProt P16070 21-220); assay: as above
T5 construct: Bought reagent

[6] = molecular target: T6, rHuman IGF-1 sR (insulin-like growth factor-1 soluble receptor), CF (R&D Systems Cat#391-GR) (human, UniProt P08069 31-932); assay: as above
T6 construct: Bought soluble receptor

[7] = molecular target: T7, rHuman P-Cadherin/Fc Chimera, CF (R&D Systems Cat#861-PC) (human, UniProt P22223 108-654); assay: as above
T7 construct: Bought reagent

[8] = molecular target: T8, rHuman Erythropoietin R/Fc Chimera, CF (R&D Systems Cat#963-ER) (human, UniProt P19235 25-250); assay: as above
T8 construct: Bought reagent; also called EPO R; Epo R/Fc
T8 sequence (looked up): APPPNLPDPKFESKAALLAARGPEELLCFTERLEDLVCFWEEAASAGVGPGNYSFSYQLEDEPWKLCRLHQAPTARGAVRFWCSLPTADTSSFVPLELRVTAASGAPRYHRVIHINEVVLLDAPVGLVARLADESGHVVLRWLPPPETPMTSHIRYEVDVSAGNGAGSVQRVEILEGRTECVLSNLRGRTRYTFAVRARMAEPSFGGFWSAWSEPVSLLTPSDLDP

[9] = molecular target: T9, Recombinant Human DLL4 (R&D Systems Cat#1506-D4/CF) (human, UniProt Q9NR61 27-524); assay: as above
T9 construct: Bought recombinant protein; also called delta-like protein 4; rHuman DLL4

[10] = molecular target: T10, rHuman ErbB2/Fc Chimera, CF (R&D Systems Cat#1129-ER) (human, UniProt P04626 23-652); assay: ECL multispot (MSD) assay, antigen spotted on plate; blank spot of this row 302
T10 construct: Bought recombinant protein; also called human epidermal growth factor 2 receptor; Fc part of the bought chimera not given

[11] = molecular target: T11, rHuman EGF R/Fc Chimera, CF (R&D Systems Cat#344-ER) (human, UniProt P00533 25-645); assay: as above
T11 construct: Bought recombinant protein; also called epidermal growth factor receptor; Fc part of the bought chimera not given

[12] = molecular target: T12, rHuman HGF R/c-MET/Fc Chimera, CF (R&D Systems Cat#358-MT/CF) (human, UniProt P08581 25-932); assay: as above
T12 construct: Bought recombinant protein; also called HGF R/Fc; hepatocyte growth factor receptor; Fc part of the bought chimera not given

[13] = molecular target: T13, rHuman Notch-1/Fc Chimera, CF (R&D Systems Cat#3647-TK) (human, UniProt P46531 19-526); assay: as above
T13 construct: Bought recombinant protein; Fc part of the bought chimera not given

[14] = molecular target: T14, rHuman CD44/Fc Chimera, CF (R&D Systems Cat#3660-CD) (human, UniProt P16070 21-220); assay: as above
T14 construct: Bought recombinant protein; Fc part of the bought chimera not given

[15] = molecular target: T15, rHuman IGF-1 sR, (IGF-1 sR), CF (R&D Systems Cat#391-GR) (human, UniProt P08069 31-932); assay: as above
T15 construct: Bought recombinant soluble receptor; also called insulin-like growth factor-1 soluble receptor

[16] = molecular target: T16, rHuman P-Cadherin/Fc Chimera, CF (R&D Systems Cat#861-PC) (human, UniProt P22223 108-654); assay: as above
T16 construct: Bought recombinant protein; Fc part of the bought chimera not given

[17] = molecular target: T17, rHuman Erythropoietin R/Fc Chimera, CF (R&D Systems Cat#963-ER) (human, UniProt P19235 25-250); assay: as above
T17 construct: Bought recombinant protein; also called EPO R; EPO R/Fc; Fc part of the bought chimera not given
T17 sequence (looked up): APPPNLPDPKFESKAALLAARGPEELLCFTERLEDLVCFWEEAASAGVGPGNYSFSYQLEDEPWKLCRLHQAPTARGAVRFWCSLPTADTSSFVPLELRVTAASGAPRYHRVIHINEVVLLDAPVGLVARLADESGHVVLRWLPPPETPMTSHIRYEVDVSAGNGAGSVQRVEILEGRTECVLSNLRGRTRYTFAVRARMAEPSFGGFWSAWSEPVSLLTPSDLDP

[18] = molecular target: T18, Recombinant Human DLL4 (R&D Systems Cat#1506-D4/CF) (human, UniProt Q9NR61 27-524); assay: as above
T18 construct: Bought recombinant protein; also called delta-like protein 4; rHuman DLL4

[19] = molecular target: T10, rHuman ErbB2/Fc Chimera, CF (R&D …); assay: ECL multispot (MSD) assay, antigen spotted on plate; blank spot of this row 184
[20] = molecular target: T11, rHuman EGF R/Fc Chimera, CF (R&D …); assay: as above
[21] = molecular target: T12, rHuman HGF R/c-MET/Fc Chimera, CF (R&D …); assay: as above
[22] = molecular target: T13, rHuman Notch-1/Fc Chimera, CF (R&D …); assay: as above
[23] = molecular target: T14, rHuman CD44/Fc Chimera, CF (R&D Systems …); assay: as above
[24] = molecular target: T15, rHuman IGF-1 sR, (IGF-1 sR), CF (R&D …); assay: as above
[25] = molecular target: T16, rHuman P-Cadherin/Fc Chimera, CF (R&D …); assay: as above
[26] = molecular target: T17, rHuman Erythropoietin R/Fc Chimera, CF …; assay: as above
[27] = molecular target: T18, Recombinant Human DLL4 (R&D Systems …); assay: as above
[28] = molecular target: T10, rHuman ErbB2/Fc Chimera, CF (R&D …); assay: ECL multispot (MSD) assay, antigen spotted on plate; blank spot of this row 351
[29] = molecular target: T11, rHuman EGF R/Fc Chimera, CF (R&D …); assay: as above
[30] = molecular target: T12, rHuman HGF R/c-MET/Fc Chimera, CF (R&D …); assay: as above
[31] = molecular target: T13, rHuman Notch-1/Fc Chimera, CF (R&D …); assay: as above
[32] = molecular target: T14, rHuman CD44/Fc Chimera, CF (R&D Systems …); assay: as above
[33] = molecular target: T15, rHuman IGF-1 sR, (IGF-1 sR), CF (R&D …); assay: as above
[34] = molecular target: T16, rHuman P-Cadherin/Fc Chimera, CF (R&D …); assay: as above
[35] = molecular target: T17, rHuman Erythropoietin R/Fc Chimera, CF …; assay: as above
[36] = molecular target: T18, Recombinant Human DLL4 (R&D Systems …); assay: as above

B2: Fab VH1-46_IGHD6-6*01_IGHJ1*01 S102A/S103P/S104F/H111F (APFF) & L6_IGKJ1*01 S30P (Fab, V domains shown)
VH: QVQLVQSGAEVKKPGASVKVSCKASGYTFTSYYMHWVRQAPGQGLEWMGIINPSGGSTSYAQKFQGRVTMTRDTSTSTVYMELSSLRSEDTAVYYCAREEYAPFSAEYFQFWGQGTLVTVSS
VL: EIVLTQSPATLSLSPGERATLSCRASQSVPSYLAWYQQKPGQAPRLLIYDASNRATGIPARFSGSGSGTDFTLTISSLEPEDFAVYYCQQRSNWPPWTFGQGTKVEIKR
notes: Fab made in E. coli: VH cloned into Plasmid A (CH1, His6 and Flag tags), kappa VL into Plasmid C (kappa CL); also called APFF / S30P
ECL signal [10]: 358 | ECL signal [11]: 385 | ECL signal [12]: 383 | ECL signal [13]: 346 | ECL signal [14]: 411 | ECL signal [15]: 312 | ECL signal [16]: 413 | ECL signal [17]: 418 | ECL signal [18]: 1260

B3: Fab VH1-46_IGHD6-6*01_IGHJ1*01 S102A/S103P/S104F/H111F (APFF) & L6_IGKJ1*01 S30A (Fab, V domains shown)
VH: QVQLVQSGAEVKKPGASVKVSCKASGYTFTSYYMHWVRQAPGQGLEWMGIINPSGGSTSYAQKFQGRVTMTRDTSTSTVYMELSSLRSEDTAVYYCAREEYAPFSAEYFQFWGQGTLVTVSS
VL: EIVLTQSPATLSLSPGERATLSCRASQSVASYLAWYQQKPGQAPRLLIYDASNRATGIPARFSGSGSGTDFTLTISSLEPEDFAVYYCQQRSNWPPWTFGQGTKVEIKR
notes: Fab made in E. coli: VH cloned into Plasmid A (CH1, His6 and Flag tags), kappa VL into Plasmid C (kappa CL); also called APFF / S30A
ECL signal [19]: 295 | ECL signal [20]: 337 | ECL signal [21]: 311 | ECL signal [22]: 364 | ECL signal [23]: 451 | ECL signal [24]: 342 | ECL signal [25]: 317 | ECL signal [26]: 475 | ECL signal [27]: 187000

Results, then the binder that gave them:

ECL signal [1]: 241 | ECL signal [2]: 400 | ECL signal [3]: 297 | ECL signal [4]: 296 | ECL signal [5]: 437 | ECL signal [6]: 362 | ECL signal [7]: 396 | ECL signal [8]: 525 | ECL signal [9]: 175000
B1: Fab VH1-46_IGHD6-6*01_IGHJ1*01 S102A/S103P/S104F/H111F (APFF) & L6_IGKJ1*01 S30N (Fab, V domains shown)
VH: QVQLVQSGAEVKKPGASVKVSCKASGYTFTSYYMHWVRQAPGQGLEWMGIINPSGGSTSYAQKFQGRVTMTRDTSTSTVYMELSSLRSEDTAVYYCAREEYAPFSAEYFQFWGQGTLVTVSS
VL: EIVLTQSPATLSLSPGERATLSCRASQSVNSYLAWYQQKPGQAPRLLIYDASNRATGIPARFSGSGSGTDFTLTISSLEPEDFAVYYCQQRSNWPPWTFGQGTKVEIKR
notes: Tested as Fab made in E. coli: VH joined to CH1 from Plasmid A (His6 and Flag tags), VL joined to kappa CL from Plasmid C; also called APFF / S30N

ECL signal [28]: 260 | ECL signal [29]: 298 | ECL signal [30]: 263 | ECL signal [31]: 346 | ECL signal [32]: 343 | ECL signal [33]: 304 | ECL signal [34]: 397 | ECL signal [35]: 480 | ECL signal [36]: 178000
B4: Fab VH1-46_IGHD6-6*01_IGHJ1*01 S102A/S103P/S104F/H111F (APFF) & L6_IGKJ1*01 S30G (Fab, V domains shown)
VH: QVQLVQSGAEVKKPGASVKVSCKASGYTFTSYYMHWVRQAPGQGLEWMGIINPSGGSTSYAQKFQGRVTMTRDTSTSTVYMELSSLRSEDTAVYYCAREEYAPFSAEYFQFWGQGTLVTVSS
VL: EIVLTQSPATLSLSPGERATLSCRASQSVGSYLAWYQQKPGQAPRLLIYDASNRATGIPARFSGSGSGTDFTLTISSLEPEDFAVYYCQQRSNWPPWTFGQGTKVEIKR
notes: Fab made in E. coli: VH cloned into Plasmid A (CH1, His6 and Flag tags), kappa VL into Plasmid C (kappa CL); also called APFF / S30G

— US20120316071A1 (published 2012)
